Molecular target: T1, recombinant GST-EGFL7 protein (UniProt Q9UHF1 24-273)
T1 construct: Expressed in Sf21 insect cells by baculovirus and purified on glutathione-agarose; The sense primer encodes MRGSQEV, which fits human EGFL7; also called purified EGFL7 protein; recombinant EGFL7; not shown: glutathione-S-transferase (GST) tag from the pDEST20 plasmid (Invitrogen); TEV site/linker region carried over from pENTR/TEV/D-TOPO
T1 sequence (looked up): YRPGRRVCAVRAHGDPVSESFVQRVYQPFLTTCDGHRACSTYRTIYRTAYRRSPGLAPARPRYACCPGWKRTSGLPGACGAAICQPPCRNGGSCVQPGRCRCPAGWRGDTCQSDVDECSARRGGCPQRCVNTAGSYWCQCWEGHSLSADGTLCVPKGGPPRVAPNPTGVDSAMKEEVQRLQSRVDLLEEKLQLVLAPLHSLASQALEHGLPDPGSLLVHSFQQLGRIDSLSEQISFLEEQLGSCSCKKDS
Experiment: SPR imaging (GWC); peptide immobilised on gold spots, purified EGFL7 protein in solution; fit with 'association then dissociation' in GraphPad Prism
Procedure: Peptides were immobilized onto gold spots using standard protocols from the GWC manual. Peptides were then exposed to 500 μL of purified EGFL7 protein. The % change in reflectivity (% R) for each of the spots containing the peptides was collected using V++ Precision Digital Imaging Systems, version 5.0 software and the dissociation constants (KD) were calculated using the ‘association then dissociation’ equation in GraphPad Prism, version 5.0.

B1: GSLLVHSFQQLG (peptide)
peptide: GSLLVHSFQQLG
notes: Immobilised on gold spots for the SPR imaging study; also called LCE71; LCE77
Work on B1 yielded a Kd of 14.7 nM.

Source: US20150071855A1 (LONDON HEALTH SCIENCES CENTRE RESEARCHING, published 2015)
